Data on 37 sequences can be found in the supplement of paper PMC7877785.

± gives the uncertainty stated by the source.

The series can be described thus: self-splicing fitness, log relative to wild type (ln ratio); higher = more splicing; Tetrahymena group I intron in knt gene, E. coli kanamycin selection, DiMSum; sequences stand for … in CUCUCU…GGAGGGAAAAGUUAUCAGGCAUGCACCUGGUAGCUAGUCUUUAAACCAAUAGAUUGCAUCGGUUUAAAAGGCAAGACCGUCAAAUUGCGGGAAAGGGGUCAACAGCCGUUCAGUACCAAGUCUCAGGGGAAACUUUGAGAUGGCCUUGCAAAGGGUAUGGUAAUAAGCUGACGGACAUGGUCCUAACCACGCAGCCAAGUCCUAAGUCAACAGAUCUUCUGUUGAUAUGGAUGCAGUUCACAGACUAAAUGUCGGUCGGGGAAGAUGUAUUCUUCUCAUAAGAUAUAGUCGGACCUCUCCUUAAUGGGAGCUAGCGGAUGAAGUGAUGCAACACUGGAGCCGCUGGGAACUAAUUUGUAUGCGAAAGUAUAUUGAUUAGUUUUGGAGUACUCGUGGUCG
The gist of the method: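 Six replicate transformations of E. coli BL21(DE3) with a pET-22b(+) library were grown overnight at 37°C or 30°C. The library randomised all eight P1ex-region intron nucleotides, the intron lying in the knt kanamycin-resistance gene, and plates were LB agar with or without 25 μg/mL kanamycin plus 100 μg/mL carbenicillin, 50 μM IPTG and 0.2% rhamnose. Pooled colonies were amplicon-sequenced on an Illumina HiSeq 2500, and fitness is the DiMSum error-weighted combination of wild-type-normalised replicate fold changes, kanamycin versus none.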

In the case of GGGAAGCAAUAUUACGGUAA, the “self-splicing fitness (ln)” value was -3.01 ± 0.41 (30 °C) and -0.554 ± 0.17 (37 °C).

Consider GGGAAGCAAUAUUACGGUCA, for which the “self-splicing fitness (ln)” value runs as follows: (30 °C) -0.346 ± 0.1; (37 °C) -0.237 ± 0.11.

In the case of GGGAAGCAAUAUUACGUGAA, the “self-splicing fitness (ln)” value by setting is: (30 °C) -2.39 ± 0.18; (37 °C) -0.692 ± 0.17.

Regarding GGGAAGCAAUAUUACGUGCA, the “self-splicing fitness (ln)” value (30 °C) was -1.36 ± 0.1 and the “self-splicing fitness (ln)” value (37 °C) was found to be 0.0267 ± 0.12.

For GGGAAGCAAUAUUACGUGGG, the “self-splicing fitness (ln)” value is, setting by setting: (30 °C) -3.64 ± 0.29; (37 °C) -2.46 ± 0.24.

On to GGGAAGCAAUAUUACGUGUC, for which the “self-splicing fitness (ln)” value is -3.63 ± 0.24 (30 °C) and -2.28 ± 0.2 (37 °C).

In the case of GGGAAGCAAUAUUACGUUAG, the “self-splicing fitness (ln)” value is, setting by setting: (30 °C) -2.72 ± 0.27; (37 °C) -0.794 ± 0.24.

On to GGGAAGCAAUAUUACGUUCU, for which the “self-splicing fitness (ln)” value reads like this: (30 °C) -3.66 ± 0.22; (37 °C) -3.52 ± 0.25.

For GGGAAGCAAUAUUACGUUGG, the “self-splicing fitness (ln)” value was -3.77 ± 0.3 (30 °C) and -1.1 ± 0.24 (37 °C).

For GGGAAGCAAUAUUACGUUUG, the “self-splicing fitness (ln)” value is, setting by setting: (30 °C) -2.72 ± 0.22; (37 °C) -1.74 ± 0.21.

As for GGGCAGCAAUAUUACGAAAG, the “self-splicing fitness (ln)” value is, setting by setting: (30 °C) -3.58 ± 0.28; (37 °C) -2.92 ± 0.35.

Consider GGGCAGCAAUAUUACGACAU, for which the “self-splicing fitness (ln)” value is, setting by setting: (30 °C) -0.411 ± 0.013; (37 °C) 0.0276 ± 0.033.

Consider GGGCAGCAAUAUUACGACUC, for which the “self-splicing fitness (ln)” value reads like this: (30 °C) 0.392 ± 0.12; (37 °C) 0.247 ± 0.17.

Take GGGCAGCAAUAUUACGAGGU: the “self-splicing fitness (ln)” value is -4.65 ± 0.38 (30 °C) and -2.77 ± 0.24 (37 °C).

As to GGGCAGCAAUAUUACGAGUU, the “self-splicing fitness (ln)” value is -2.81 ± 0.2 (30 °C) and -1.27 ± 0.22 (37 °C).

As to GGGCAGCAAUAUUACGAUGC, the “self-splicing fitness (ln)” value is -1.98 ± 0.2 (30 °C) and -1.11 ± 0.24 (37 °C).

Turning to GGGCAGCAAUAUUACGCAAU, the “self-splicing fitness (ln)” value (30 °C) is -0.2 ± 0.071 and the “self-splicing fitness (ln)” value (37 °C) is -0.127 ± 0.085.

As for GGGCAGCAAUAUUACGCACU, the “self-splicing fitness (ln)” value runs as follows: (30 °C) -1.6 ± 0.32; (37 °C) -1.42 ± 0.24.

GGGCAGCAAUAUUACGCAGG: the “self-splicing fitness (ln)” value is, setting by setting: (30 °C) -2.6 ± 0.18; (37 °C) -1.03 ± 0.19.

Turning to GGGCAGCAAUAUUACGCAGU, the “self-splicing fitness (ln)” value is -0.715 ± 0.14 (30 °C) and -0.784 ± 0.18 (37 °C).

For GGGCAGCAAUAUUACGCCUA, the “self-splicing fitness (ln)” value was -0.197 ± 0.12 (30 °C) and 0.428 ± 0.14 (37 °C).

With GGGCAGCAAUAUUACGCGGA, the “self-splicing fitness (ln)” value is, setting by setting: (30 °C) -1.23 ± 0.15; (37 °C) -0.758 ± 0.1.

Consider GGGCAGCAAUAUUACGCGUA, for which the “self-splicing fitness (ln)” value is, setting by setting: (30 °C) -0.501 ± 0.077; (37 °C) -0.0324 ± 0.077.

Take GGGCAGCAAUAUUACGCUUA: the “self-splicing fitness (ln)” value reads like this: (30 °C) 0.359 ± 0.12; (37 °C) 0.25 ± 0.15.

Turning to GGGCAGCAAUAUUACGGAGG, the “self-splicing fitness (ln)” value reads like this: (30 °C) -4.42 ± 0.26; (37 °C) -3.03 ± 0.23.

As to GGGCAGCAAUAUUACGGAUC, the “self-splicing fitness (ln)” value by setting is: (30 °C) -0.301 ± 0.057; (37 °C) 0.486 ± 0.076.

For the sequence GGGCAGCAAUAUUACGGCCA, the “self-splicing fitness (ln)” value came out at 0.461 ± 0.14 (30 °C) and 0.258 ± 0.17 (37 °C).

GGGCAGCAAUAUUACGGUUG: the “self-splicing fitness (ln)” value is -1.94 ± 0.12 (30 °C) and -1.11 ± 0.13 (37 °C).

GGGCAGCAAUAUUACGUAAU: the “self-splicing fitness (ln)” value is -0.917 ± 0.063 (30 °C) and 0.209 ± 0.085 (37 °C).

Consider GGGCAGCAAUAUUACGUACA, for which the “self-splicing fitness (ln)” value is -0.35 ± 0.084 (30 °C) and -0.0196 ± 0.1 (37 °C).

Regarding GGGCAGCAAUAUUACGUACG, the “self-splicing fitness (ln)” value runs as follows: (30 °C) -0.697 ± 0.12; (37 °C) -0.0767 ± 0.14.

As to GGGCAGCAAUAUUACGUAUC, the “self-splicing fitness (ln)” value is -0.951 ± 0.068 (30 °C) and -0.0249 ± 0.1 (37 °C).

GGGCAGCAAUAUUACGUCCA: the “self-splicing fitness (ln)” value was -1.17 ± 0.23 (30 °C) and -1.01 ± 0.28 (37 °C).

As for GGGCAGCAAUAUUACGUGAC, the “self-splicing fitness (ln)” value reads like this: (30 °C) -0.997 ± 0.13; (37 °C) -1.03 ± 0.21.

Turning to GGGCAGCAAUAUUACGUGAG, the “self-splicing fitness (ln)” value was -0.483 ± 0.085 (30 °C) and -0.435 ± 0.1 (37 °C).

With GGGCAGCAAUAUUACGUGUU, the “self-splicing fitness (ln)” value by setting is: (30 °C) -1.64 ± 0.072; (37 °C) -0.906 ± 0.08.

GGGGAGCAAUAUUACGAACA: the “self-splicing fitness (ln)” value runs as follows: (30 °C) -1.6 ± 0.35; (37 °C) -0.419 ± 0.28.
